Measurements from patent publication US20250051471A1 (WILLIAM ROBERT ARATHOON LIVING TRUST DATED AUGUST 29 2016, published 2025).

How the values were obtained:
human ABCB1 on cells [1] = biological target: T1, human ABCB1 on cells (human, UniProt P08183 1-1280); test: flow cytometry, DX5 CD47 KO cells, % positive cells
T1 construct: whole, on cells; also called MDR1; Pgp

human ABCB1 on cells [2] = biological target: T1, human ABCB1 on cells; test: flow cytometry, DX5/ADR CD47 WT cells (carry both ABCB1 and CD47), % positive cells
human CD47 on cells [3] = biological target: T2, human CD47 on cells (human, UniProt Q08722 19-323); test: receptor occupancy assay on A2780ADR cells (carry both ABCB1 and CD47), flow cytometry; free CD47 detected with Alexa 647 anti-hCD47 CC2C6 (competitor), direct binding with PE anti-human IgG Fc
T2 construct: also called hCD47; CD47 antigen

human CD47 on cells [4] = biological target: T2, human CD47 on cells; test: flow cytometry on human RBC, donor D834
human CD47 on cells [5] = biological target: T2, human CD47 on cells; test: flow cytometry on human RBC, donor D835
human CD47 on cells [6] = biological target: T2, human CD47 on cells; test: flow cytometry on human RBC, donor D836
human CD47 on cells [7] = biological target: T2, human CD47 on cells; test: flow cytometry on human RBC, donor D837
[8] = biological target: T3, cynomolgus CD47 on red blood cells (cynomolgus, UniProt A0A5F8AK49 19-323 (rhesus entry)); test: flow cytometry on cynomolgus RBC, donor Cy744
T3 construct: whole, on cells; The assay target is the red blood cell; also called cynomolgus Red Blood Cells

[9] = biological target: T3, cynomolgus CD47 on red blood cells; test: flow cytometry on cynomolgus RBC, donor Cy745
[10] = biological target: T3, cynomolgus CD47 on red blood cells; test: flow cytometry on cynomolgus RBC, donor Cy746
[11] = biological target: T3, cynomolgus CD47 on red blood cells; test: flow cytometry on cynomolgus RBC, donor Cy747
human ABCB1 on cells [12] = biological target: T1, human ABCB1 on cells; test: flow cytometry, DX5 CD47 KO cells, % positive cells; remark: listed apart in the source
human ABCB1 on cells [13] = biological target: T1, human ABCB1 on cells; test: flow cytometry, DX5 CD47 knock-out cells ('DX5 KT14 KO'), MFI
human CD47 on cells [14] = biological target: T2, human CD47 on cells; test: flow cytometry, DX5 B1 KO (ABCB1 knock-out) cells, % positive cells
human ABCB1 on cells [15] = biological target: T1, human ABCB1 on cells; test: flow cytometry, DX5 WT cells (carry both ABCB1 and CD47), MFI
human CD47 on cells [16] = biological target: T2, human CD47 on cells; test: receptor occupancy assay on A2780ADR cells, curve 'BiS-Direct Binding' (PE anti-human IgG Fc); the cells carry both antigens, the target is named after the receptor whose free signal falls most in the same panel
human CD47 on cells [17] = biological target: T2, human CD47 on cells; test: flow cytometry, DX5 B1 KO (ABCB1 knock-out) cells, % positive cells; remark: listed apart in the source
human ABCB1 on cells [18] = biological target: T1, human ABCB1 on cells; test: receptor occupancy assay on A2780ADR cells, curve 'BiS-Direct Binding' (PE anti-human IgG Fc); the cells carry both antigens, the target is named after the receptor whose free signal falls in the same panel
[19] = biological target: T4, recombinant extracellular domain of human CD47-Fc fusion protein (human, UniProt Q08722 19-139); test: ELISA on plate-coated recombinant human CD47 extracellular domain-Fc, A450; x axis printed as log10 values under the unit nM
T4 construct: extracellular domain; also called huCD47 ECD; CD47-Fc fusion protein (R&D systems); not shown: Fc part of the bought fusion protein; not described

Row | Binder | % Positive (human CD47 on cells [4]) | % Positive (human CD47 on cells [5]) | % Positive (human CD47 on cells [6]) | % Positive (human CD47 on cells [7]) | % Positive [8] | % Positive [9] | % Positive [10] | % Positive [11] | other results
1 | 15D3hmz HIR2/KT14 KbR1/B1VL6/CDR3v2a (bispecific antibody, human IgG1, kappa, Humanized ABCB1 x CD47 IgG1 bispecific with a common light chain) heavy 1: EVQLVESGGVVVQPGGSLRLSCAASGFTFSRYTMSWVRQAPGKGLEWVATISSGGGNTYYPDSVKGRFTVSRDNSKNSLYLQMNSLRTEDTALYYCARYGAGDAWFAYWGQGTLVTVSSASTKGPSVFPLAPSSKSTSGGTAALGCLVKDYFPEPVTVSWNSGALTSGVHTFPAVLQSSGLYSLSSVVTVPSSSLGTQTYICNVNHKPSNTKVDKRVEPKSCDKTHTCPPCPAPELLGGPSVFLFPPKPKDTLMISRTPEVTCVVVDVSHEDPEVKFNWYVDGVEVHNAKTKPREEQYNSTYRVVSVLTVLHQDWLNGKEYKCKVSNKALPAPIEKTISKAKGQPREPQVCTLPPSREEMTKNQVSLSCAVKGFYPSDIAVEWESNGQPENNYKTTPPVLDSDGSFVLVSKLTVDKSRWQQGNVFSCSVMHEALHNHYTQKSLSLSPG heavy 2: not shown light: DIVMTQSPLSLPVTPGEPASISCRSSQSLVHSNGNTYLEWYLQKPGQSPQLLIYKVSNRFSGVPDRFSGSGSGTDFTLKISRVEAEDVGVYYCFQGSHFPRTFGQGTKLEIKRTVAAPSVFIFPPSDEQLKSGTASVVCLLNNFYPREAKVQWKVDNALQSGNSQESVTEQDSKDSTYSLSSTLTLSKADYEKHKVYACEVTHQGLSSPVTKSFNRGEC |  |  |  |  |  |  |  |  | EC50 (read off the curve) (human ABCB1 on cells [1]): ~5 nM; EC50 (read off the curve) (human ABCB1 on cells [2]): ~0.8 nM; binding result (human CD47 on cells [3]): binds
2 | 15D3 hmz HIR2/KT14 KbR1/B1.89v1.huL1(KV2) (bispecific antibody, human IgG1, kappa, Humanized ABCB1 x CD47 IgG1 bispecific with a common light chain) heavy 1: EVQLVESGGVVVQPGGSLRLSCAASGFTFSRYTMSWVRQAPGKGLEWVATISSGGGNTYYPDSVKGRFTVSRDNSKNSLYLQMNSLRTEDTALYYCARYGAGDAWFAYWGQGTLVTVSSASTKGPSVFPLAPSSKSTSGGTAALGCLVKDYFPEPVTVSWNSGALTSGVHTFPAVLQSSGLYSLSSVVTVPSSSLGTQTYICNVNHKPSNTKVDKRVEPKSCDKTHTCPPCPAPELLGGPSVFLFPPKPKDTLMISRTPEVTCVVVDVSHEDPEVKFNWYVDGVEVHNAKTKPREEQYNSTYRVVSVLTVLHQDWLNGKEYKCKVSNKALPAPIEKTISKAKGQPREPQVCTLPPSREEMTKNQVSLSCAVKGFYPSDIAVEWESNGQPENNYKTTPPVLDSDGSFVLVSKLTVDKSRWQQGNVFSCSVMHEALHNHYTQKSLSLSPG heavy 2: not shown light: DIVMTQSPLSLPVTPGEPASISCRSSQTIVHSNGNTYLEWYLQKPGQSPQLLIYKVSKRFSGVPDRFSGSGSGTDFTLKISRVEAEDVGVYYCFQASHFPRTFGQGTKLEIKRTVAAPSVFIFPPSDEQLKSGTASVVCLLNNFYPREAKVQWKVDNALQSGNSQESVTEQDSKDSTYSLSSTLTLSKADYEKHKVYACEVTHQGLSSPVTKSFNRGEC | 2% | 1.4% | 1.1% | 1.6% | 7.9% | 10.6% | 57.7% | 74.5% | EC50 (read off the curve) (human ABCB1 on cells [12]): ~0.4 nM; EC50 (read off the curve) (human ABCB1 on cells [13]): ~50 nM; EC50 (read off the curve) (human CD47 on cells [14]): ~30 nM; EC50 (read off the curve) (human ABCB1 on cells [15]): ~30 nM; EC50 (read off the curve) (human CD47 on cells [16]): ~200 nM
3 | ABCB1XCD47 KBisP1.1 (15D3 HC KK/KT14 HC DD/MRK16 LC) (bispecific antibody, human IgG1, kappa, also called KNJYBisP1.1) heavy 1: not shown heavy 2: not shown light: DVLMTQTPVSLSVSLGDQASISCRSSQSIVHSTGNTYLEWYLQKPGQSPKLLIYKISNRFSGVPDRFSGSGSGTDFTLKISRVEAEDLGVYYCFQASHFPRTFGGGTKLEIKRTVAAPSVFIFPPSDEQLKSGTASVVCLLNNFYPREAKVQWKVDNALQSGNSQESVTEQDSKDSTYSLSSTLTLSKADYEKHKVYACEVTHQGLSSPVTKSFNRGEC | 0.4% | 0.4% | 0.3% | 0.5% | 0.5% | 0.7% | 2% | 3.7% | EC50 (read off the curve) (human ABCB1 on cells [13]): ~30 nM; EC50 (read off the curve) (human ABCB1 on cells [15]): ~10 nM
4 | KB1-1401 (bispecific antibody, human IgG1, kappa, also called 15D3DD KT14KK MRK16) heavy chain 1 (anti-ABCB1, DD): not shown heavy chain 2 (anti-CD47, KK): not shown light chain: DVLMTQTPVSLSVSLGDQASISCRSSQSIVHSTGNTYLEWYLQKPGQSPKLLIYKISNRFSGVPDRFSGSGSGTDFTLKISRVEAEDLGVYYCFQASHFPRTFGGGTKLEIKRTVAAPSVFIFPPSDEQLKSGTASVVCLLNNFYPREAKVQWKVDNALQSGNSQESVTEQDSKDSTYSLSSTLTLSKADYEKHKVYACEVTHQGLSSPVTKSFNRGEC |  |  |  |  |  |  |  |  | binding result (human CD47 on cells [17]): no binding (tested: about 660 nM); EC50 (read off the curve) (human ABCB1 on cells [18]): ~200 nM
5 | anti-CD47 monoclonal antibody 5F9 (antibody, IgG1, V domains shown, also called KT14; 5F9 KT14 mAb) VH: QVQLVQSGAEVKKPGASVKVSCKASGYTFTNYNMHWVRQAPGQRLEWMGTIYPGNDDTSYNQKFKDRVTITADTSASTAYMELSSLRSEDTAVYYCARGGYRAMDYWGQGTLVTVSS VL: DIVMTQSPLSLPVTPGEPASISCRSSQSIVYSNGNTYLGWYLQKPGQSPQLLIYKVSNRFSGVPDRFSGSGSGTDFTLKISRVEADVGVYYCFQGSHVPYTFGQGTKLEIK | 99.1% | 98.9% | 98.9% | 99.1% | 99% | 98.8% | 99.4% | 99% | EC50 (read off the curve) [19]: ~0.003 nM
6 | 15D3 hmz DD/KT14 KK/MRK16 hmz bispecific antibody (bispecific antibody, human IgG1, the general methods state a human kappa constant region) heavy 1: not shown heavy 2: not shown VL: DIVMTQTPLSSPVTLGQPASISCRSSQSIVHSTGNTYLEWYQQRPGQPPRLLIYKISNRFSGVPDRFSGSGAGTDFTLKISRVEAEDVGVYYCFQASHFPRTFGGGTKLEIKR |  |  |  |  |  |  |  |  | EC50 (read off the curve) [19]: ~0.08 nM
7 | 15D3hmz16-1/KT14/MRK16v4a1 (bispecific antibody, V domains shown, Human IgG1/kappa bispecific with KK/DD charge-pair Fc; also called 15D3hmz16-1 KK/KT14 DD/MRK16v4a1 Bispecific; 15D316-1 DD/KT14 KK/MRK16v4a1 hmz LC) VH 1: EVQLVESGGVVVQPGGSLRLSCAASGFTFSRYTMSWVRQAPGKGLEWVATISSGGGNTYYPDSVKGRFTVSRDNSKNSLYLQMNSLRTEDTALYYCARYYRYDAWFAYWGQGTLVTVSS VH 2: QVQLVQSGAEVKKPGASVKVSCKASGYTFTNYNMHWVRQAPGQRLEWMGTIYPGNDDTSYNQKFKDRVTITADTSASTAYMELSSLRSEDTAVYYCARGGYRAMDYWGQGTLVTVSS VL: DIVMTQTPLSSPVTLGQPASISCRSSQSIVHSTGNTYLEWYQQKPGQPPRLLIYKISNRFSGVPDRFSGSGSGTDFTLKISRVEAEDVGVYYCFQASHFPRTFGQGTKLEIK |  |  |  |  | 0.4% | 0.4% | 1.5% | 5.7% | 
8 | 15D3hmz16-1/KT14/MRK16v4a12 (bispecific antibody, V domains shown, Human IgG1/kappa bispecific) VH 1: EVQLVESGGVVVQPGGSLRLSCAASGFTFSRYTMSWVRQAPGKGLEWVATISSGGGNTYYPDSVKGRFTVSRDNSKNSLYLQMNSLRTEDTALYYCARYYRYDAWFAYWGQGTLVTVSS VH 2: QVQLVQSGAEVKKPGASVKVSCKASGYTFTNYNMHWVRQAPGQRLEWMGTIYPGNDDTSYNQKFKDRVTITADTSASTAYMELSSLRSEDTAVYYCARGGYRAMDYWGQGTLVTVSS VL: DIVMTQTPLSSPVTLGQPASISCRSSQSIVHSTGNTYLEWYQQKPGQPPRLLIYKVSNRFSGVPDRFSGSGSGTDFTLKISRVEAEDVGVYYCFQASHFPRTFGQGTKLEIK | 0.4% |  |  |  |  |  |  |  | 
